The values that follow come from the Human Domainome abundance scans (Beltran et al. 2025).

± gives the uncertainty stated by the source.

B1: Pre-mRNA-processing factor 40 homolog B, residues 274 to 332; numbered along this chain, Q6NWY9 (parent)
chain: SNREKAKQAFKELLRDKAVPSNASWEQAMKMVVTDPRYSALPKLSEKKQAFNAYKAQRE

The data set covers variants of B1. Description: abundance fitness (aPCA) (normalised: wild type 0, dead -1); higher = more abundant; growth selection in yeast, the domain comes from the species named. The settings on record: Homo sapiens.
For A23F, the abundance fitness was -0.348 ± 0.14.

A23N: the abundance fitness was -0.335 ± 0.12. As for A23G, the abundance fitness was -0.464 ± 0.054. Consider A23I, for which the abundance fitness is -0.122 ± 0.13. In the case of A23V, the abundance fitness was -0.222 ± 0.065. Turning to A23C, the abundance fitness was -0.206 ± 0.083. As to A23T, the abundance fitness is -0.467 ± 0.1.

Consider A23K, for which the abundance fitness was -0.459 ± 0.1. As to A23R, the abundance fitness was -0.506 ± 0.068. With A23Q, the abundance fitness was -0.528 ± 0.093. On to A23H, for which the abundance fitness is -0.591 ± 0.18. Take A23S: the abundance fitness is -0.313 ± 0.072.

Turning to A23M, the abundance fitness was -0.142 ± 0.096.

A23Y: the abundance fitness was -0.254 ± 0.12. Regarding A23P, the abundance fitness is -0.533 ± 0.13.

As for A23D, the abundance fitness is -0.522 ± 0.091. Consider P20F, for which the abundance fitness was -1.59 ± 0.38. As for P20V, the figure is -0.578 ± 0.062; as for P20L, -0.641 ± 0.072. As for P20K, the abundance fitness is -0.654 ± 0.12.

On to P20M, for which the abundance fitness is -0.549 ± 0.083. As for P20G, the figure is -0.391 ± 0.05. Regarding P20Y, the abundance fitness was -0.641 ± 0.14. As to P20T, the abundance fitness was -0.421 ± 0.083. As to P20I, the abundance fitness was -0.753 ± 0.14. With P20N, the abundance fitness was -0.587 ± 0.13. As to P20H, the abundance fitness was -0.789 ± 0.16. As for P20S, the figure is -0.506 ± 0.066. For P20R, the abundance fitness is -0.592 ± 0.053. For N22G the value was -0.217 ± 0.062; for N22W, -0.063 ± 0.1. Consider N22I, for which the abundance fitness is -1.04 ± 0.31. Regarding N22F, the abundance fitness is -0.906 ± 0.24. For N22R the value was -0.505 ± 0.06; for N22M, -0.623 ± 0.19; for N22Y, -0.57 ± 0.15. For the variant N22D, the abundance fitness amounted to 0.05 ± 0.08.

With N22S, the abundance fitness was -0.036 ± 0.074. Turning to N22C, the abundance fitness was -0.211 ± 0.13. Turning to N22L, the abundance fitness was -0.446 ± 0.089. For N22T, the abundance fitness is -0.014 ± 0.082. Regarding N22H, the abundance fitness is -0.179 ± 0.17.

For the variant N22P, the abundance fitness is -0.664 ± 0.13.

For N22E, the abundance fitness was determined as 0.03 ± 0.088.

For the variant N22K, the abundance fitness is -0.553 ± 0.11. Turning to N22Q, the abundance fitness is -0.217 ± 0.16. For S24Q, the abundance fitness is -0.422 ± 0.1. Consider S24Y, for which the abundance fitness is -0.74 ± 0.18. Turning to S24F, the abundance fitness is -0.654 ± 0.13. For S24M the value was -0.591 ± 0.093; for S24W, -1 ± 0.13; for S24E, -0.306 ± 0.088. For S24G, the abundance fitness is -0.366 ± 0.064. Regarding S24R, the abundance fitness is -0.671 ± 0.079. With S24D, the abundance fitness was -0.355 ± 0.12. S24P: the abundance fitness was -0.169 ± 0.13. In the case of S24C, the abundance fitness was -0.371 ± 0.16. For the variant S24H, the abundance fitness was -0.344 ± 0.15. In the case of S24A, the abundance fitness is -0.238 ± 0.063. For S24N the value was -0.447 ± 0.2.

Regarding S24V, the abundance fitness was -0.644 ± 0.067. Regarding S24K, the abundance fitness was -0.229 ± 0.091. On to S24I, for which the abundance fitness is -0.65 ± 0.19. As for S21D, the figure is -0.077 ± 0.1. In the case of S21Q, the abundance fitness worked out at 0.014 ± 0.13. As to S21H, the abundance fitness was -0.037 ± 0.47. For S21W the value was -0.055 ± 0.13. Regarding S21F, the abundance fitness is 0.029 ± 0.11. As for S21M, the abundance fitness is 0.074 ± 0.11. For S21G, the abundance fitness was -0.103 ± 0.074. On to S21Y, for which the abundance fitness came to 0.005 ± 0.12. In the case of S21R, the abundance fitness was -0.083 ± 0.073.

S21L: the abundance fitness came out at 0.109 ± 0.087. Consider S21E, for which the abundance fitness is -0.054 ± 0.12. Consider S21N, for which the abundance fitness was -0.492 ± 0.16. With S21K, the abundance fitness stood at 0.134 ± 0.12.

In the case of S21C, the abundance fitness was -0.001 ± 0.1.

For S21T, the abundance fitness is 0.06 ± 0.093. Regarding S21V, the abundance fitness amounted to 0.089 ± 0.073. As for S21P, the figure is -0.146 ± 0.1; as for W25Q, -0.36 ± 0.3. On to W25A, for which the abundance fitness was -0.244 ± 0.082.

On to W25T, for which the abundance fitness is -0.149 ± 0.093.

For W25S, the abundance fitness is -0.13 ± 0.075.

Regarding W25F, the abundance fitness came out at 0.249 ± 0.12. With W25R, the abundance fitness was -0.189 ± 0.057. W25K: the abundance fitness is -0.221 ± 0.14. For W25L the value was -0.242 ± 0.087. Take W25N: the abundance fitness was 0.038 ± 0.12. Turning to W25E, the abundance fitness is -0.095 ± 0.092. With W25I, the abundance fitness was -0.251 ± 0.18. Take W25C: the abundance fitness is -0.109 ± 0.12. As for W25D, the abundance fitness is -0.114 ± 0.1.

Regarding W25G, the abundance fitness was -0.161 ± 0.055.

On to W25P, for which the abundance fitness was -0.237 ± 0.11.

On to W25Y, for which the abundance fitness was -0.18 ± 0.12. As for W25V, the figure is -0.291 ± 0.073.

On to W25H, for which the abundance fitness was -0.347 ± 0.22. On to K30E, for which the abundance fitness worked out at 0.067 ± 0.12.

On to K30D, for which the abundance fitness is -0.411 ± 0.12. K30C: the abundance fitness is -0.423 ± 0.16.

As to K30A, the abundance fitness is -0.061 ± 0.078. With E26G, the abundance fitness was -0.274 ± 0.067. For E26F the value was -0.729 ± 0.16; for E26Q, -0.412 ± 0.16.

As for E26P, the abundance fitness was -0.149 ± 0.099. For the variant E26W, the abundance fitness was -0.598 ± 0.11. In the case of E26D, the abundance fitness was -0.019 ± 0.12. As for E26Y, the abundance fitness is -0.581 ± 0.14. As for E26V, the figure is -0.364 ± 0.083. On to E26I, for which the abundance fitness was -0.547 ± 0.15. Take E26R: the abundance fitness was -0.719 ± 0.093.

For E26A, the abundance fitness is -0.31 ± 0.091.

Regarding E26K, the abundance fitness is -0.169 ± 0.13. With E26M, the abundance fitness was -0.325 ± 0.19.

As to E26L, the abundance fitness was -0.362 ± 0.088. Consider E26S, for which the abundance fitness is -0.229 ± 0.089. For E26H the value was -0.237 ± 0.22. As for E26T, the figure is -0.006 ± 0.13. As for M29T, the figure is -0.282 ± 0.088. With M29F, the abundance fitness is -0.295 ± 0.17.

With M29E, the abundance fitness was -0.102 ± 0.1. As for M29K, the figure is 0.166 ± 0.094; as for M29G, -0.237 ± 0.058.

On to M29R, for which the abundance fitness was -0.078 ± 0.059. M29Q: the abundance fitness came out at 0.047 ± 0.11. With M29Y, the abundance fitness is -0.014 ± 0.14. Consider M29S, for which the abundance fitness is -0.136 ± 0.086. For M29A the value was -0.125 ± 0.075; for M29C, -0.203 ± 0.1; for M29P, -0.103 ± 0.1. M29V: the abundance fitness was -0.114 ± 0.063. With M29D, the abundance fitness was -0.097 ± 0.1. Regarding M29L, the abundance fitness is -0.216 ± 0.093.

Consider A28F, for which the abundance fitness is -0.563 ± 0.068.

On to A28D, for which the abundance fitness was -0.473 ± 0.072. As to A28N, the abundance fitness was -0.445 ± 0.077. With A28R, the abundance fitness is -0.607 ± 0.05.

With A28I, the abundance fitness was -0.595 ± 0.071.

Regarding A28M, the abundance fitness was -0.576 ± 0.062.

Consider A28Q, for which the abundance fitness was -0.313 ± 0.065. Turning to A28K, the abundance fitness was -0.524 ± 0.063. Turning to A28H, the abundance fitness is -0.583 ± 0.067.

As to A28T, the abundance fitness was -0.299 ± 0.054. Regarding A28W, the abundance fitness is -0.71 ± 0.068. For the variant A28L, the abundance fitness is -0.684 ± 0.048. Regarding A28G, the abundance fitness is -0.48 ± 0.055.

A28S: the abundance fitness was -0.413 ± 0.05. As for A28V, the abundance fitness is -0.277 ± 0.056.

Take A28E: the abundance fitness was -0.431 ± 0.074.

As to Q27S, the abundance fitness is -0.406 ± 0.11. As to Q27W, the abundance fitness was -1 ± 0.095. In the case of Q27G, the abundance fitness is -0.358 ± 0.059. Regarding Q27P, the abundance fitness is -0.531 ± 0.2. As for Q27H, the abundance fitness was -0.096 ± 0.24. As to Q27T, the abundance fitness was 0.027 ± 0.11. For Q27E, the abundance fitness worked out at 0.115 ± 0.11. On to Q27M, for which the abundance fitness is -0.297 ± 0.14. As for Q27R, the figure is -0.342 ± 0.059; as for Q27V, -0.297 ± 0.091. For Q27F the value was -0.884 ± 0.23. Take Q27C: the abundance fitness was -0.422 ± 0.11. On to Q27N, for which the abundance fitness is -0.174 ± 0.15. In the case of Q27K, the abundance fitness is -0.292 ± 0.12. For Q27A, the abundance fitness was -0.143 ± 0.091.

Take Q27I: the abundance fitness is -0.301 ± 0.2.

For the variant Q27Y, the abundance fitness was -0.524 ± 0.15.
